This is an account of results in the supplement of paper PMC10126150.

The test system of this series is ATP. Briefly: switch fluorescence ratio, 500 uM ATP over buffer (Cy3 cluster intensity, sum of 5 cycles each) (fold (ratio)); higher = stronger signal-on switching upon ATP binding; sequences stand for … in TCGTCGGCAGCGTCAGATGTGTATAAGAGACAGTTTTTTTTTTTTTTTTTTTTTTTTT…TC. The note with it: aptamer strand: ATP DNA aptamer (quencher-CACCTGGGGGAGTATTGCGGAGGAAGG + anchor), 100 nM annealed; ATP concentration: 500 uM. The procedure, abridged: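 Imaging in selection buffer was followed by imaging after 15 min with 500 uM ATP at 22 °C, for Cy3-labelled switching-strand clusters annealed to 100 nM quencher-labelled ATP aptamer on a modified Illumina MiSeq flow-cell. Five of these buffer/ATP cycles ran, separated by NaOH stripping and re-annealing. The fluorescence ratio per cluster is summed target-cycle over summed buffer-cycle Cy3 intensity, averaged per switch-domain sequence; clusters outside 100-1000 RFU were removed.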

± gives the standard deviation of the averaged measurements.
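Also: ATP exposure 15 min at 22 °C before imaging.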

Turning to TGGTGTATAG, the switch fluorescence ratio was found to be 1 ± 0.036. Under TGGTGTCAGC stands 1.02 ± 0.013. Under TGGTGTGAAT stands 1.01 ± 0.036; under TGGTGTGGGC, 0.985 ± 0.048; under TGGTGTTGCT, 0.9797 ± 0.0068. The value for TGGTGTTTGT was 0.983 ± 0.029; that for TGGTGTTTTA was 0.994 ± 0.023; that for TGGTTAAAGG was 0.978 ± 0.024.

As to TGGTTAAGGA, the switch fluorescence ratio was determined as 1 ± 0.013. Under TGGTTAAGGG stands 1 ± 0.041; under TGGTTAAGGT, 0.982 ± 0.033. Under TGGTTACTTC stands 1.04 ± 0.028; under TGGTTAGATT, 0.996 ± 0.034; under TGGTTATACT, 0.973 ± 0.052. Under TGGTTCACGT stands 1 ± 0.024; under TGGTTCAGAG, 0.969 ± 0.044; under TGGTTCGGGT, 1.03 ± 0.036. Turning to TGGTTGAATT, the switch fluorescence ratio turned out to be 0.992 ± 0.05. Under TGGTTGGACG stands 0.997 ± 0.017; under TGGTTGGGCC, 0.985 ± 0.06; under TGGTTGGGTG, 1.03 ± 0.059. Under TGGTTGGTCA stands 0.992 ± 0.01; under TGGTTGTCGC, 0.991 ± 0.065. As to TGGTTTAATG, the switch fluorescence ratio came to 0.997 ± 0.015. Under TGGTTTACTC stands 1.14 ± 0.18; under TGGTTTAGGG, 0.981 ± 0.026. The value for TGGTTTAGTT was 0.998 ± 0.017; that for TGGTTTATTG was 1.01 ± 0.024; that for TGGTTTCATT was 1.01 ± 0.017. Regarding TGGTTTCTTT, the switch fluorescence ratio was found to be 1.006 ± 0.0059. Under TGGTTTGGCA stands 0.962 ± 0.012; under TGGTTTGGGG, 0.974 ± 0.021; under TGGTTTTATA, 0.969 ± 0.02. The value for TGGTTTTCGC was 0.975 ± 0.023. In the case of TGTAAAAAGT, the switch fluorescence ratio came to 1 ± 0.026.

Take TGTAAAATTT: the switch fluorescence ratio is 0.988 ± 0.053. Under TGTAACGGGA stands 1.01 ± 0.018; under TGTAAGGAAA, 1.03 ± 0.013. Under TGTAATTGCT stands 0.999 ± 0.022. The value for TGTAATTGGT was 1.003 ± 0.0089. For the sequence TGTACTTTTT, the switch fluorescence ratio came out at 1.02 ± 0.022.

With TGTAGGAGAC, the switch fluorescence ratio came out at 1.24 ± 0.33. The value for TGTAGGGATT was 1.01 ± 0.054; that for TGTAGTATGT was 1 ± 0.012; that for TGTAGTATTT was 1 ± 0.013. Turning to TGTAGTCTTT, the switch fluorescence ratio is 1.03 ± 0.052. The value for TGTAGTTGGA was 0.973 ± 0.032; that for TGTATAAAAA was 0.9906 ± 0.0039. The value for TGTATAAAGG was 1.009 ± 0.0069; that for TGTATAAAGT was 0.986 ± 0.02. Under TGTATAATTG stands 0.993 ± 0.017; under TGTATGGCTA, 1.0085 ± 0.00081; under TGTATGGGAG, 0.968 ± 0.02. With TGTATGGTAG, the switch fluorescence ratio is 0.975 ± 0.025. With TGTATGTTAG, the switch fluorescence ratio stood at 0.9477 ± 0.0061.

As for TGTATTTCGT, the switch fluorescence ratio came to 1.01 ± 0.011. The value for TGTATTTTTG was 1.02 ± 0.029. On to TGTCAGAGGG, for which the switch fluorescence ratio was 1.01 ± 0.016. For the sequence TGTCAGGAAA, the switch fluorescence ratio amounted to 0.9717 ± 0.0065. Regarding TGTCAGGGGG, the switch fluorescence ratio was determined as 1.01 ± 0.023. Turning to TGTCAGTGGG, the switch fluorescence ratio amounted to 0.975 ± 0.034. In the case of TGTCAGTTAT, the switch fluorescence ratio worked out at 0.979 ± 0.031. The value for TGTCATTCGC was 1.047 ± 0.0074.

On to TGTCATTGGA, for which the switch fluorescence ratio amounted to 0.989 ± 0.017. Turning to TGTCCACTAC, the switch fluorescence ratio came out at 2.78 ± 2.3. Under TGTCCGAGCA stands 1.75 ± 0.058; under TGTCCTAGCG, 0.99 ± 0.024; under TGTCGCATTT, 1.04 ± 0.012. Under TGTCGGAGGG stands 0.973 ± 0.065; under TGTCGGCTGG, 1.02 ± 0.052; under TGTCGGGGTT, 0.9932 ± 0.0083. Under TGTCGGTGTT stands 0.971 ± 0.029. Take TGTCGGTTTT: the switch fluorescence ratio was 0.996 ± 0.037. The value for TGTCGTAGGA was 1.006 ± 0.0035; that for TGTCGTTTTC was 0.98 ± 0.03. The value for TGTCTTAGGA was 0.999 ± 0.019; that for TGTGAAAGAC was 1.044 ± 0.003; that for TGTGAAGTGG was 1.02 ± 0.034. The value for TGTGAATTCG was 1.01 ± 0.024. With TGTGACTAAG, the switch fluorescence ratio was found to be 0.9791 ± 0.0015. The value for TGTGAGGG was 1.03 ± 0.036. Regarding TGTGAGGGGA, the switch fluorescence ratio came to 1.01 ± 0.035.

Regarding TGTGAGGGTT, the switch fluorescence ratio came out at 0.964 ± 0.012. The value for TGTGAGGTTC was 0.9675 ± 0.0075; that for TGTGAGTTGG was 1 ± 0.029; that for TGTGAGTTTA was 0.978 ± 0.028. Under TGTGAGTTTG stands 1.03 ± 0.013. Under TGTGATGGGC stands 0.989 ± 0.026; under TGTGCGCGCT, 0.995 ± 0.036; under TGTGCTGCTG, 1.06 ± 0.02. As to TGTGGAAAAA, the switch fluorescence ratio is 1.011 ± 0.0081. The value for TGTGGACTGT was 0.9855 ± 0.0015; that for TGTGGAGCTT was 1.07 ± 0.041; that for TGTGGATAGG was 1.03 ± 0.012.

As for TGTGGATTAT, the switch fluorescence ratio is 0.988 ± 0.011. Under TGTGGCACAC stands 1.01 ± 0.018; under TGTGGGAGCG, 0.9542 ± 0.0021; under TGTGGGAGGG, 0.998 ± 0.042. With TGTGGGGAAA, the switch fluorescence ratio amounted to 0.993 ± 0.03. As for TGTGGGGGTT, the switch fluorescence ratio was 0.986 ± 0.048. On to TGTGGGTATT, for which the switch fluorescence ratio worked out at 1.01 ± 0.028.

As for TGTGGGTCGT, the switch fluorescence ratio worked out at 1.01 ± 0.026. The value for TGTGGTACCA was 1.01 ± 0.023; that for TGTGGTCGGT was 1.015 ± 0.007. As to TGTGGTGAA, the switch fluorescence ratio was determined as 1.01 ± 0.011. Turning to TGTGGTTAGG, the switch fluorescence ratio was found to be 0.993 ± 0.035. As for TGTGGTTTGT, the switch fluorescence ratio worked out at 1 ± 0.035. In the case of TGTGGTTTTA, the switch fluorescence ratio amounted to 1 ± 0.033.

Turning to TGTGTAGGGG, the switch fluorescence ratio stood at 1.04 ± 0.079. Under TGTGTCCTAA stands 1.03 ± 0.026; under TGTGTCCTGC, 0.965 ± 0.016; under TGTGTCGCGG, 1 ± 0.033. As for TGTGTCGCGT, the switch fluorescence ratio turned out to be 0.983 ± 0.02. With TGTGTCTACA, the switch fluorescence ratio was found to be 1 ± 0.024. As to TGTGTGACAC, the switch fluorescence ratio was 0.998 ± 0.026. Regarding TGTGTGAGGT, the switch fluorescence ratio stood at 1.06 ± 0.027. In the case of TGTGTGCGGT, the switch fluorescence ratio is 0.997 ± 0.054. The value for TGTGTGGGAC was 0.988 ± 0.025; that for TGTGTGTGTT was 1.02 ± 0.03.

For the sequence TGTGTGTTGA, the switch fluorescence ratio is 1.023 ± 0.0026.
